Results on three molecules are retold here after US20260167714A1 (COHERUS BIOSCIENCES, published 2026).

For orientation: Kd means the equilibrium constant for the complex coming apart. A word on the IC50: it is the concentration that gives 50% inhibition. Broadly, the koff is the rate constant with which the complex falls apart. One may read the kon as the rate constant with which the complex forms.

The target in test [1] is T1, recombinant human ILT4 (LILRB2) (human, UniProt Q8N423 22-460).
T1 construct: Bought protein (Acro Biosystems or R&D Systems); also called ILTR4
Put plainly: SPR, Biacore T200, medium resolution; koff held at its limit of 4.27e-5 s^-1. As to the method:
(§1) Label-free SPR analysis on a Biacore T200 instrument was utilized to measure antibody affinity to ILT4. CM4 sensor chips from Cytiva Inc. were utilized for all medium resolution analyses. Either anti-mouse Fc specific or anti-human Fc specific capture surfaces were prepared using standard amine coupling chemistry. Mouse, Chimera or Humanized mAbs were captured to their respective surfaces and ILT4 was injected across the surfaces from 101 nM to 0.79 nM in a 2-fold serial dilution series at a flow rate of 100 μL/min. The association phase was followed for 90 sec. while the dissociation phase was followed for 1200 sec. due to the medium resolution analysis implemented here. The sensorgrams were double-referenced and fit globally to a 1:1 interaction model with a term included for mass transport, and the equilibrium dissociation constant was calculated as KD=koff/kₒₙ. […] All kinetic experiments were performed at 25° C. in a buffer consisting of Hepes-buffered saline, pH 7.4, with 0.05% polysorbate 20 (HBS-P+) and 100 μg/ml Bovine Serum Albumin (BSA).

The target of test [2] is T2, human ILT4 expressed on cells (human, UniProt Q8N423 22-597). Put plainly: cell-based or functional assay.
Test [3] has as its target T2, human ILT4 expressed on cells. Put plainly: flow cytometry blocking assay: ILT4-expressing CHO cells preincubated with antibody, then PE-HLA-G; HLA-G binding MFI falls from about 105000 (no antibody) to near 0. As to the method: (§2) In the second blocking experiment, the primary antibody dilutions were made by diluting antibody to 15 μg/ml in FACS buffer. Three independent sets of eleven 2.5-fold serial dilutions were then made in FACS buffer from 15 μg/ml to 0.002 μg/ml. Each dilution set was handled independently, and 50 μl from each was added to cells in duplicate. Control wells received FACS buffer with no antibody. Wells were mixed and incubated for 30 minutes at 4 degrees C. Cells were washed twice in FACS buffer.
(§3) In both blocking experiments, phycoerythrin (PE)-conjugated HLA-G tetramer was diluted in FACS buffer to 5 μg/ml and 100 μl per well was added to cells. Cells were incubated at 4 degrees C. for 30 minutes, washed twice in FACS buffer, and resuspended in 250 μl FACS buffer with 0.1 μg/ml propidium iodide.
(§4) Cells were acquired on an Attune flow cytometer, with 5000 propidium iodide-negative cells collected per sample, and MFI was recorded. Relative blocking activity was calculated with the following formula: 100−(Sample MFI−Background MFI)/(Top MFI−Background MFI)*100. Prism software (Graphpad) was used to plot MFI and relative blocking activity for each sample. The blocking potency for each antibody, represented as IC₅₀, was calculated with Prism software.

Test [4] concerns the target T1, recombinant human ILT4 (LILRB2). Kind of test: SPR, Biacore T200, medium resolution; koff held at its limit of 4.27e-5 s^-1; koff held at the limit, 1200 s of dissociation. As to the method:
as §1
(In general: Surface plasmon resonance follows binding to a sensor surface in real time, without labels.)

For test [5] the target is unchanged. Kind of test: SPR, Biacore T200, mAb captured on anti-Fc, ILT4 injected, medium resolution, 25 C. As to the method:
as §1

For test [6], the target named is T2, human ILT4 expressed on cells. Kind of test: flow cytometry, blockade of PE-HLA-G tetramer (5 µg/ml) binding to CHO-S/ILT4 cells, experiment 2. As to the method:
as §2, §3, §4
A general note: Flow cytometry measures light scatter and fluorescence of single cells or particles in a stream.

Test [7] addresses T1, recombinant human ILT4 (LILRB2). Kind of test: SPR, high resolution kinetics, triplicate.
The target in test [8] is T2, human ILT4 expressed on cells. Kind of test: flow cytometry on ILT4-CHO cells, unlabelled mAb titrated; competitor AF647-Hz45.01-LALA. As to the method:
(§5) Competition binding assays were performed. […] Binding activities were measured by flow cytometry.
Anti-human ILT4 mAbs at various concentrations (0-15 μg/ml) were incubated with ILT4-CHO cells. Cells were washed and stained with AF647-Hz45.01-LALA. Cells were analyzed by flow cytometry.

For test [9], the target named is T1, recombinant human ILT4 (LILRB2). Put plainly: SPR, high resolution kinetics, triplicate; 95% CI in parentheses.
For test [10], the target named is T2, human ILT4 expressed on cells. Kind of test: flow cytometry, blockade of PE-HLA-G tetramer (5 µg/ml) binding to CHO-S/ILT4 cells, experiment 1.
The target is the same in test [11]. Kind of test: flow cytometry on ILT4-CHO cells, unlabelled mAb titrated; competitor AF647-Hz156.03-LALA. As to the method:
as §5
Anti-human ILT4 mAbs at various concentrations (0-15 μg/ml) were incubated with ILT4-CHO cells. Cells were washed and stained with AF647-Hz156.03-LALA. Cells were analyzed by flow cytometry.

Test [12] shares this target. Kind of test: flow cytometry, blockade of PE-HLA-G tetramer (5 µg/ml) binding to CHO-S/ILT4 cells, experiment 1. This is another data set of the same source.
Test [13] has the same target. Put plainly: flow cytometry, blockade of PE-HLA-G tetramer binding to ILT4-CHO cells, Experiment 1.
Test [14] has the same target. Kind of test: flow cytometry, blockade of PE-HLA-G tetramer binding to ILT4-CHO cells, Experiment 2.
The target is the same in test [15]. Kind of test: flow cytometry, blockade of PE-HLA-G tetramer binding to ILT4-CHO cells, Experiment 3.
The target is the same in test [16]. Kind of test: flow cytometry, blockade of PE-HLA-A tetramer (5 ug/ml) binding to ILT4-CHO cells, Experiment 2 (table title prints HLA-G).
The target is the same in test [17]. Kind of test: cell-based or functional assay. This is another data set of the same source.
Test [18] has the same target. Kind of test: flow cytometry, blockade of PE-HLA-A tetramer (5 ug/ml) binding to ILT4-CHO cells, Experiment 3 (table title prints HLA-G).
The target is the same in test [19]. Kind of test: flow cytometry, blockade of PE-HLA-A tetramer (5 ug/ml) binding to ILT4-CHO cells, Experiment 1 (table title prints HLA-G).
Test [20] shares this target. Kind of test: cell-based or functional assay. The source holds these as a separate data set.

T2 sequence (Q8N423 22-597): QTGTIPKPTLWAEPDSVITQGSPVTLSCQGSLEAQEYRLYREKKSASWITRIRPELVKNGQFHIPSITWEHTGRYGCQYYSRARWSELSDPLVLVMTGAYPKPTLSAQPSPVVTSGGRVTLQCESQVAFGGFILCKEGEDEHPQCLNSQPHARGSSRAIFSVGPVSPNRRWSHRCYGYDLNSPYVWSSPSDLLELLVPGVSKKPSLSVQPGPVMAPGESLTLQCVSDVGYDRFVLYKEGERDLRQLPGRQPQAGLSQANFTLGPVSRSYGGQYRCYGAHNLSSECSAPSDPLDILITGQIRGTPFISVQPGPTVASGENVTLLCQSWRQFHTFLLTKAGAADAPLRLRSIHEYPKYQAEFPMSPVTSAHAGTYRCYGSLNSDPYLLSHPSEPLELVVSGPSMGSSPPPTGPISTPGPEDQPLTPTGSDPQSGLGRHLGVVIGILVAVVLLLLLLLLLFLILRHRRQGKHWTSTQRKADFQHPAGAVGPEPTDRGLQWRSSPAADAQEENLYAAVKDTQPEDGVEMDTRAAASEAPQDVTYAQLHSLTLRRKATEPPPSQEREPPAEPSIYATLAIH
T1 sequence (Q8N423 other isoform, or with tags, fused parts or gaps limits assumed): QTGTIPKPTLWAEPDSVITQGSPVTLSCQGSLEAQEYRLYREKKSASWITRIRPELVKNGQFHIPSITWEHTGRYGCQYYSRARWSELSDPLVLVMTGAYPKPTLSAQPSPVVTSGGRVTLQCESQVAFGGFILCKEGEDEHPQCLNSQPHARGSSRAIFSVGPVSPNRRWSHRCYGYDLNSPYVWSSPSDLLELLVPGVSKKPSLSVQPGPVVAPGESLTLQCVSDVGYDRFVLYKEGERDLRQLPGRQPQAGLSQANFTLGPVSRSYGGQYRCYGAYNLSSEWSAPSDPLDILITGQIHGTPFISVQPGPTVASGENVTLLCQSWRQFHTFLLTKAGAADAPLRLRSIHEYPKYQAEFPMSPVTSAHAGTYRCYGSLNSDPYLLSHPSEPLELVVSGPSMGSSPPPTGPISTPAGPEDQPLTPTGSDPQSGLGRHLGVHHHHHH

B1: L156S3 (antibody, IgG2a, V domains shown)
VH: QVQLKQSGAELVRPGASVKLSCRASGYTFTDYYMNWVKQRPGQGLEWIARIYPGVYRTHYNEKFKDKATLTAEKSSSTAYMELSSLTSEDSAVYFCARSGYYGGTYEEDAMDYWGQGTSVTVSS
VL: DIQMTQSPASLSVSVGETVTITCRASENIYSNLAWYQQKQGKSPQLLVYAATSLADGVPSRFRGSGSGTQYSLKISSLQSEDFGNYYCQNFWDTPYTFGGGTKLEIK
notes: also called mouse anti-human ILT4 antibody L156S3
As for B1, the dissociation constant (Kd) in test [1] is not above 0.16 nM. In addition, the “IL-6 secretion by LPS-stimulated M2 macrophages (MSD), fold over control” value in test [2] came out at 2 fold. Further, the 50% inhibitory concentration (IC50) in [3] was determined as 0.088 µg/mL; in test [6] it was 0.113 µg/mL. The koff in test [4] is not above 4.27e-05 s⁻¹. Further, the kon in test [5] amounted to 269000 M⁻¹ s⁻¹.

B2: J19h1 (antibody, V domains shown)
VH: QITLKESGPTLVKPTQTLTLTCTFSGFSLNTYAMGVSWIRQPPGKALEWLASIWWNGNKYNNPSLKSRLTVTKDTSKNQVVLTMTNMDPVDTATYYCAHSRIIRFTDYVMDAWGQGTLVTVSS
VL: DIQMTQSPSSLSTSVGDRVTITCRASEDIYNDLAWYQQKPGKAPKLLIYNANSLHTGVASRFSGSGSGTDFTFTISSLQPEDVATYFCQQYYDYPLTFGQGTKLEIKR
With B2, in test [7], the Kd was determined as 0.85 nM. Also, in test [7], the koff turned out to be 0.00433 s⁻¹. Moreover, the IC50 in test [8] came out at 0.182 µg/mL; in test [3], 0.233 µg/mL; in test [10] it was 0.13 µg/mL; in test [11] it was 0.0796 µg/mL; in test [6], 0.216 µg/mL. Further, the “IL-6 secretion, fold over control, Donor A” value in test [2] came to 3 fold. Moreover, in test [2], the “IL-6 secretion, fold over control, Donor B” value was determined as 2 fold. In addition, the “TNF-α secretion, fold over negative control” value in test [2] was found to be 8 fold. In addition, the kon in test [9] was found to be 5.11e+06 M⁻¹ s⁻¹. The “fold decrease of PE-HLA-G MFI” value in [12] is not above 22 fold.

B3: 1E1 (antibody, V domains shown)
VH: QVQLQQWGAGLLKPSETLSLTCAVYGGSFSGYYWSWIRQPPGKGLEWIGEINHSGSTNYNPSLKSRVTISVDTSKNQFSLKLSSVTAADTAVYYCARLPTRWVTTRYFDLWGRGTLVTVSS
VL: QSVLTQPPSVSGAPGQRVTISCTGSSSNIGAGYDVHWYQQLPGTAPKLLIYGNSNRPSGVPDRFSVSKSGASASLAITGLQAEDEADYYCQSFDNSLSAYVFGGGTQLTVL
Turning to B3, the IC50 was 0.194 µg/mL in test [13]; 0.171 µg/mL in [8]; 0.096 µg/mL in [3]; 0.162 µg/mL in [14]; 0.151 µg/mL in [15]; 0.107 µg/mL in [16]. Further, the IC50 in test [10] was 0.13 µg/mL; in test [11] it was 0.336 µg/mL; in test [18], 0.0956 µg/mL; in test [19], 0.102 µg/mL; in [6], 0.075 µg/mL. Moreover, the Kd in test [7] was found to be 5.5 nM. The koff in test [7] worked out at 0.00895 s⁻¹. Further, the kon in test [9] stood at 1.62e+06 M⁻¹ s⁻¹. Besides, the “EC50 value of IL-6 production, donor 4” value in test [17] came out at 0.00374 µg/mL. The “EC50 value of IL-6 production, donor 5” value in test [17] came to 0.0139 µg/mL. The “EC50 value of TNFa production, donor 4” value in test [20] amounted to 0.00877 µg/mL. Moreover, the “EC50 value of TNFa production, donor 5” value in test [20] came out at 0.0235 µg/mL. The “fold decrease of PE-HLA-G MFI” value in test [12] was not above 30 fold.
